A short description of the data set: soluble on expression in E. coli; label from the status in PepcDB or PDB records.
With “MGSDKIHHHHHHMSSGLYLYGIFPDPIPETVTLQGLDSQLVYSQIIDGFTFLYSEAKQEKYLASRRNLISHEKVLEQAMHAGFRTLLPLRFGLVVKNWETVVTQLLQPYKAQLRELFQKLAGRREVSVKIFWDSKAELQAMMDSHQDLKQKRDQMEGKALSMEEVIHIGQLIESNLLSRKESIIQVFFDELKPLADEVIESDPMTEDMIYNAAFLIPWENESIFSQQVESIDHKFDERLRIRYNNFTAPYTFAQIS”, the “soluble on expression in E. coli” value is recorded as “not soluble”. The same measure for “MGHHHHHHSHMPFKLFKKLTISSVVTSATVNWATLASRTVFILPKRVLPYLRSVARLTRVVIAMDRYGGLLGGFLRAVPPVQKPLSLTDGNKFREGIMSEVGKYVSTLVDPRNMMLDSFHHLKHNKSLQGSFLVHAGTVSDQEVCGTPMFCYKDGLSNPEIDRLLTPISLTRLTVPNNENSDVFRIGNIIYSEDSGLFDIIPTLRTRLMERNLHEGLVFVGPLIKNINSSFVNKITTAIKGDTVLNESLSHGLVLKLPVEQFMDFETTNTFHYTGRLPMTHRSYIYYALGYVITADGTQSLLQKFFRTPIEGPEFTRLVRDYFAGEIRNFFLGDNDFGQGNFLMFGAVCRCGYFPEDSLLTRTRVSIKGGGLSLIEIPDFTVSRGPWQFI”: “not soluble”; for “MTRACNLYVFKNKYVSFNLLDSPNSNPKLLKISLPFNFMDEFEGLLKAVGSAPWYKLIGMVPKLQGDRVVVEMEIDRSKHLQALGTTHGGAIASVLDSAIGLNVNREVVKMGKTAVTAQLNIHYIRPVTEGKIVGVGMPMHIGSKVTVGYGEVRNEEGELVAAGTATFYIIDRRFRDLEHHHHHH”: “not soluble”; for “MESENQIAILDYIFNQVNQPNQPKIVWFSGEGEDEKINFLIRLNDFFKPKFVENTNDSSFLLSFRNHVETKNSTPLTQANFANIANKLLAVLFGSLQWKQLNK”: “not soluble”. With “MFTQQRLRPNTQELLKETNHLCEAFAISESILARYQRNNRQLSESEKKAFASLLLRVPHDFLTETVASLGTSKTSSIGPTTDLGSLIDNVFGFGKPLKDVFQLLNQELGNCLNSPRCRVYYLDPTDNLLKDPVYATASTLDETTPLGKAVLTGIQREIAGTLYLPLSFEGKVIACVESAWGSPEKGDKRRIKETLQFVACAMHNAIESERLRWNKEKAEAMLEMATQLARDNLDEAVLANSIMNTAKVLTESDRCSIFLVKDDTLEAHFEDGNIVAIPIATGIAGYVAQTGQTVKISDAYSDDRFNREVDKATGYRTKTILCMPVTYEGSIVAVAQLINKLDMVTESGLRLPRTFGKRDEELFQTFSMFAGASLRNCRINEKLINEKRKSDAILDVVTLLSNTDIRDVDGIVRHVLHGAKRLLYADRSALFLVDKERNELYSRIADSVAGKEIRFPCGQGIAGIVASTGIGENILDAYQDPRFNREVDKQLGYRTQTLLCEPIVLNGEILAVVQLVNKLNEAGEVTVFTESDRETFRVFSLFAGISINNSHLLEFAVKAGREMMELNENRALAGGRTGSLRNIKRPLAITEAERQAVRDINLAHLDITSIDFDLFYLRENMELPLDAAAAVAYRLIVGTGLPQKFRCRDDTLLNFILQCRKKYRNVPYHNFYHVVDVCQTVYTFLYKGAVCEKLTELDCFVLLVTALVHDLDHMGLNNSFYLKTDSPLGILSSASGNASVLEVHHCNLAVEILSDPDSDVFEGLDAADRTLAYRSMIDCVLATDMAKHGKSLESFLSVLGNPETSEQRIAELTMQIVLKAGDVSNVTKPFDISRLWAMAVTEEFYRQGDMEKEKGVEVLPMFDRSKNTELAKGQIGFIDFVAGPFFKKIVSASLTGMQWTVERVESNRLEWQRSLDAK”, the “soluble on expression in E. coli” value is listed as “not soluble”.

“MFSPLRRLTTTGLQLQKLQKLQKLQQFQPARAVHLTVFQQKGHSKWQNIKAVKGKNDLIRSKATNFLLRKVRGAVSRGGFDMKLNRELADLESEFRAQGLPLDTLKNFLQKMKDKPEVEYSFDIIGPSGIFLIVTAETSNKKAFENDLRKYFNKLGGFRLAADGGVRSWFEEKGVVHVDTKKGGKILNIEEMEEIGLEFDAEEVLLIEEDSTKKFELICDAKSLQTLENGLGKGGFSILQSEIEFRPVHPIDCPEAEEPKVQKLYEMLQEDEQVRQIFDNITPDE”: the “soluble on expression in E. coli” value is “not soluble”.

In the case of “MSSYANHQALAGLTLGKSTDYRDTYDASLLQGVPRSLNRDPLGLKADNLPFHGTDIWTLYELSWLNAKGLPQVAVGHVELDYTSVNLIESKSFKLYLNSFNQTRFNNWDEVRQTLERDLSTCAQGKISVALYRLDELEGQPIGHFNGTCIDDQDITIDNYEFTTDYLENATCGEKVVEETLVSHLLKSNCLITHQPDWGSLQIQYRGRQIDREKLLRYLVSFRHHNEFHEQCVERIFNDLLRFCQPEKLSVYARYTRRGGLDINPWRSNSDFVPSTTRLVRQ”, the “soluble on expression in E. coli” value is “soluble”. For “FEEHLKKKPLRERLLEIPELRTEGLRDCQVMAISNLEKSFKDYRPRALIQMATGSGKTYTAITFIYRLLKFADARKVLFLVDTKNLGEQAEQEFMAYVPNDDNRKFTELYNVQRLRSSYISSDSQVCISTIQRLYSILKGEDLDEKTEEENPAERGWQLKEPLPVVYNEKVPIEEFDFIVIDECHRSIY” the value was “not soluble”; for “MVGGLTHVDEKGVKMVEIGYKDVVFRKAVAKGRIKLKPETVKLIKEGKIEKGNVLATAQIAGILAVKRTPELIPLCHPIPITGVDITFDFGEDYIEVTCEVRAYYKTGVEMEALTGVTVALLAIWDMVKAVEKDEKGQYPYTRIENVHVVEKVKTHNSQ”, “soluble”.

For the sequence “MITIDGNGAVASVAFRTSEVIAIYPITPSSTMAEQADAWAGNGLKNVWGDTPRVVEMQSEAGAIATVHGALQTGALSTSFTSSQGLLLMIPTLYKLAGELTPFVLHVAARTVATHALSIFGDHSDVMAVRQTGCAMLCAANVQEAQDFALISQIATLKSRVPFIHFFDGFRTSHEINKIVPLADDTILDLMPQVEIDAHRARALNPEHPVIRGTSANPDTYFQSREATNPWYNAVYDHVEQAMNDFSAATGRQYQPFEYYGHPQAERVIILMGSAIGTCEEVVDELLTRGEKVGVLKVRLYRPFSAKHLLQALPGSVRSVAVLDRTKEPGAQAEPLYLDVMTALAEAFNNGERETLPRVIGGRYGLSSKEFGPDCVLAVFAELNAAKPKARFTVGIYDDVTNLSLPLPENTLPNSAKLEALFYGLGSDGSVSATKNNIKIIGNSTPWYAQGYFVYDSKKAGGLTVSHLRVSEQPIRSAYLISQADFVGCHQLQFIDKYQMAERLKPGGIFLLNTPYSADEVWSRLPQEVQAVLNQKKARFYVINAAKIARECGLAARINTVMQMAFFHLTQILPGDSALAELQGAIAKSYSSKGQDLVERNWQALALARESVEEVPLQPVNPHSANRPPVVSDAAPDFVKTVTAAMLAGLGDALPVSALPPDGTWPMGTTRWEKRNIAEEIPIWKEELCTQCNHCVAACPHSAIRAKVVPPEAMENAPASLHSLDVKSRDMRGQKYVLQVAPEDCTGCNLCVEVCPAKDRQNPEIKAINMMSRLEHVEEEKINYDFFLNLPEIDRSKLERIDIRTSQLITPLFEYSGACSGCGETPYIKLLTQLYGDRMLIANATGCSSIYGGNLPSTPYTTDANGRGPAWANSLFEDNAEFGLGFRLTVDQHRVRVLRLLDQFADKIPAELLTALKSDATPEVRREQVAALRQQLNDVAEAHELLRDADALVEKSIWLIGGDGWAYDIGFGGLDHVLSLTENVNILVLDTQCYSNTGGQASKATPLGAVTKFGEHGKRKARKDLGVSMMMYGHVYVAQISLGAQLNQTVKAIQEAEAYPGPSLIIAYSPCEEHGYDLALSHDQMRQLTATGFWPLYRFDPRRADEGKLPLALDSRPPSEAPEETLLHEQRFRRLNSQQPEVAEQLWKDAAADLQKRYDFLAQMAGKAEKSNTD”, the “soluble on expression in E. coli” value is given as “soluble”.

As for “MAKWVYKFEEGNASMRNLLGGKGCNLAEMTILGMPIPQGFTVTTEACTEYYNSGKQITQEIQDQIFEAITWLEELNGKKFGDTEDPLLVSVRSGARASMPGMMDTILNLGLNDVAVEGFAKKTGNPRFAYDSYRRFIQMYSDVVMEVPKSHFEKIIDAMKEEKGVHFDTDLTADDLKELAEKFKAVYKEAMNGEEFPQEPKDQLMGAVKAVFRSWDNPEAIVYRRMNDIPGDWGTAVNVQTMVFGNKGETSGTGVAFTRNPDTGEKGIYGRYLINAQGEDVVAGVRTPQPITQLENDMPDCYKQFMDLAMKLEKHFRDMQDMEFTIEEGKLYFLQTRNGKRTAPAALQIACDLVDEGMITEEEAVVRIEAKSLDQLLHPTFNPAALKAGEVIGSALPASPGAAAGKVYFTADEAKAAHEKGERVILVRLETSPEDIEGMHAAEGILTVRGGMTSHAAVVARGMGTCCVSGCGEIKINEEAKTFELGGHTFAEGDYISLDGSTGKIYKGDIETQEASVSGSFERIMVWADKFRTLKVRTNADTPEDTLNAVKLGAEGIGLCRTEHMFFEADRIMKIRKMILSDSVEAREEALNELIPFQKGDFKAMYKALEGRPMTVRYLDPPLHEFVPHTEEEQAELAKNMGLTLAEVKAKVDELHEFNPMMGHRGCRLAVTYPEIAKMQTRAVMEAAIEVKEETGIDIVPEIMIPLVGEKKELKFVKDVVVEVAEQVKKEKGSDMQYHIGTMIEIPRAALTADAIAEEAEFFSFGTNDLTQMTFGFSRDDAGKFLDSYYKAKIYESDPFARLDQTGVGQLVEMAVKKGRQTRPGLKCGICGEHGGDPSSVEFCHKVGLNYVSCSPFRVPIARLAAAQAALNNK”, the “soluble on expression in E. coli” value is on record as “soluble”. For “MLTIAHRLQRESISSGRHSSRISAVFSSPIRASSESRSQHAASSSSSIVSRPESVDEDEEEDGVWPSVTSGGVLVGCACSNSSLTRNESIVVSEGSQALYIASAATAMNGDSVRRRGGDAPDDDEAAGAAPVPAEECNLDALFERFFGDGGADAIRFEPMLPRVYELTLPSIDSRLNFINVGRRHAAFLRHVYGGCDRCEHAAVLNEKMKLFTAVITKLLDVNGILERRETTD” the value was “not soluble”; for “MAHHHHHHMVLLPFPPSFYVTTGTTIPFISSPPVAQSGNIYASNESKRLRVDNFFMGFQYSFVADGKLGRGFVFESIEPITTTTASGNNNNNNNNNNNNNNSSEKKSGRGGEERISCRSFALNRGLTGFGVPDEFVRHAESSLVRGVKVWRYTGYSRSGVGPLQEVDYFIRNGTFHAVPWRVQIRRRQTALKELTGSPMTLPNWRYFGGLFFDEVAVPEGPYEDKLERLMQDTTVTLDFYNFVPAEPHPSVFSVPDNCKEVSARFTGNDVDISLAQRFLVDLSLYTPVGREMLREELNSA”, “not soluble”. For “MNLYLITFQSSLNRIESVYDCHKDLFVEIEKFFTLHLVPYTEAASIPADAYRMAFIASGGVEKMVTQHFELLPYPIHLLTDGQQNSLAASLEIATWIRSKGMKVHIIHGTIPNMVKQLIDHHKAFAAQREVRGKRIGVVGYSSPWLVASNVDYLLAKRRWGIEFIDIPMEEVYCLFYQIKDDDIGYEASVFANRAIACREGTPEDLLKAMRLYQAVKIICEKKKLDAVTLSCFSLIEKLGTTGCLALALLNDEGIPAGCEGDLQSIFTLLIAKTLTGQAGFMANPAFINDDQNEIVMAHCTIATKMVDQFIIRNHFETETGIAIQGILHPGGITMIKCAGECLDEYFVSTGQLIENTNYINACRTQARIKLDKPVDYFMRNPLGNHHIILMGDHEKVIHEFMQLNSCKLVE” the value was “not soluble”. For “MIYSIPFLFFIIVSCSNSSTEMVAKSKYDAKIAEYKELNEQQAAVIEDNLEKSKIINNVVTELNQIAGNTHSLRVNVEHGVGELSQAEEINQKLQTLKKRLSAVEGKRSDGSKNLLATMDKLKSIIEQKEIEINNLKQEIANQQQTIANQKNTIASQQVTIDAQSQELMNKQQEMWYKLGTELHSVVEELPKVKGRKDKRNIKNTRYYILNKAKECFEHAAQLGHSLAGSKARQVEGEMSRL” the value was “not soluble”.

(Values after the DeepSol protein solubility set.)
